According to paper PMC13186708:

Target: Alistipes sp. Cas12f (Al3Cas12f), wild type (Alistipes sp.)
Assay: SEC; apo Al3Cas12f without gRNA on an S200i 10/300 GL column; 50 mM Tris-HCl pH 7.5, 250 mM NaCl, 10 mM MgCl2, 0.5 mM EDTA, 5% glycerol, 0.5 mM TCEP; peak at about 11.5 mL, near the 158 kDa standard

Alistipes sp. Cas12f (Al3Cas12f), wild type (enzyme)
stoichiometry N: 2
